Measurements as given in patent US20220127354A1 (Amgen, published 2022).

B1: hu anti-<huCDH19> 26D1.1 (Ab ID 13882) (antibody, human IgG1, lambda, V domains shown)
VH: QVQLVQSGAEVKKPGASVKVSCKASRYTFTSYYMSWVRQAPGQGLEWMGIIHPSGGDTTYAQKFQGRVTMTGDTSTSTVYMELSSLRSEDTAVYYCARGGIKLWLHFDYWGQGTLVTVSS
VL: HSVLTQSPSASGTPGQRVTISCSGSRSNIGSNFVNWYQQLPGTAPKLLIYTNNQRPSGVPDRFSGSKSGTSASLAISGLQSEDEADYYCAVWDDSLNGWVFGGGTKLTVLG
notes: huIgG1z / huLLC-C2; Bin 2
B2: hu anti-<huCDH19> 4B10 (Ab ID 13590) (antibody, V domains shown)
VH: QVQLVESGGGVVQPGRSLRLSCAASGFTFSSYDMHWVRQAPGKGLEWVAVISYDGTNEYYADSVKGRFTISRDTSKNTLYLQMNSLRAEDTAVYYCARERYFDWSFDYWGQGTLVSVSS
VL: EIVLTQSPGTLSLSPGERATLSCRASQSVSNTYLAWYHQRPGQAPRLLIYGASSRATGIPDRFSGSGSGTDFALTISSLEPEDFAVYYCQQYSNSWTFGQGTKVEIKR
notes: huIgG1z / huKLC; Bin 4
B3: anti-CDH19 antibody 2G6 (Ab ID 13588) (antibody, human IgG1, lambda, V domains shown)
VH: QVQLVESGGGVVQPGRSLRLSCAASGFTFSSYGMHWVRQAPGKGLEWVAFIWYDGSNKYYADSVKDRFTISRDNSKNTLYLQMKSLRAEDTAVYYCARRAGIIGTIGYYYGMDVWGQGTTVTVSS
VL: SYELTQPPSVSVSPGQTASITCSGDRLGEKYTCWYQQRPGQSPLLVIYQDTKRPSGIPERFSGSNSGNTATLTISGTQAMDEADYYCQAWDSSTVVFGGGTKLTVLG
notes: Bin 4
B4: hu anti-<huCDH19> 4A9 (Ab ID 13589) (antibody, human IgG1, lambda, V domains shown)
VH: QVQLQESGPGLVKPSETLSLTCTVSGGSISGYYWSWIRQPPGKGLEWFAYFSYSGSTNYNPSLKSRVTLSVDTSKNQFSLKLSSVTAADTAVYYCARNWAFHFDFWGQGTLVTVSS
VL: QSVLTQPPSVSGAPGQRVTISCTGSSSNIGTGYAVHWYQQFPGTAPKLLIYGNNNRPSGVPDRFSGSKSGTSASLAITGLQAEDEADYYCQSYDSRLSGWVFGGGTKLTVLG
notes: huIgG1z / huLLC-C1; Bin 1

Tests used:
Assay in all cases: flow cytometry, transfected 293T cells, 2 mM CaCl2
[1] = target: T1, rhCDH19(1-43)::FLAG::rhCDH19(44-141)::caCDH19(141-770) (construct R, rh EC1) (rhesus macaque/dog chimera)
T1 construct: leader (1-43 of the entry) left out
Description: (§1) The following binding assay was completed in presence of 2 mM CaCl₂). […] Cells were then washed one time and the amount of cell associated Alexa647-labelled Ab was quantitated by flow cytometry. The experiments included mock transfected controls.

[2] = target: T2, caCDH19(1-42)::FLAG::caCDH19(43-770) (construct Q, Ca EC1-5) (dog)
T2 construct: also called caCDH19(44-770); dog Cadherin19
T2 chain: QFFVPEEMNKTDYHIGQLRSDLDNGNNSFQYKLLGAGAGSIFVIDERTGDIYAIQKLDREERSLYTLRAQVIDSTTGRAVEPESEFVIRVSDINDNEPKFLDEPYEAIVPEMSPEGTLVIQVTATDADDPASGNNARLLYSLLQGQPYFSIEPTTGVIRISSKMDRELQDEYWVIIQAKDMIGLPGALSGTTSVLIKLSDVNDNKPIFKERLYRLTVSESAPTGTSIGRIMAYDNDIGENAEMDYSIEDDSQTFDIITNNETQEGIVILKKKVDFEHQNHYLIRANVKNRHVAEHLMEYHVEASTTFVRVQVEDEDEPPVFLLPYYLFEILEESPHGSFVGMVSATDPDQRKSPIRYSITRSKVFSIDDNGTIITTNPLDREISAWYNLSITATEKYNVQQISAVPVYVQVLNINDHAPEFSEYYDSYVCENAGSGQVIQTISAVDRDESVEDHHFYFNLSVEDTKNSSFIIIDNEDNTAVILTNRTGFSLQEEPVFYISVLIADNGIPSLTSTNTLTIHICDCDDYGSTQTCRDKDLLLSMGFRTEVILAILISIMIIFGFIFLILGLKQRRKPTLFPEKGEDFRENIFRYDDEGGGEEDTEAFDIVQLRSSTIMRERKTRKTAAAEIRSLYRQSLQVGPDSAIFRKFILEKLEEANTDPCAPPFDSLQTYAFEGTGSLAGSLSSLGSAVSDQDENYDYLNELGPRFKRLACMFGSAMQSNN
Description: as §1

[3] = target: T3, rhCDH19(1-43)::FLAG::rhCDH19(44-65)::caCDH19(65-770) (construct S, rh EC1a) (rhesus macaque/dog chimera)
T3 construct: leader (1-43 of the entry) left out
Description: as §1

[4] = target: T4, caCDH19(1-43)::FLAG::caCDH19(44-87)::rhCDH19(89-114)::caCDH19(115-770) (construct T, rh EC1b) (rhesus macaque/dog chimera)
T4 construct: leader left out
T4 chain: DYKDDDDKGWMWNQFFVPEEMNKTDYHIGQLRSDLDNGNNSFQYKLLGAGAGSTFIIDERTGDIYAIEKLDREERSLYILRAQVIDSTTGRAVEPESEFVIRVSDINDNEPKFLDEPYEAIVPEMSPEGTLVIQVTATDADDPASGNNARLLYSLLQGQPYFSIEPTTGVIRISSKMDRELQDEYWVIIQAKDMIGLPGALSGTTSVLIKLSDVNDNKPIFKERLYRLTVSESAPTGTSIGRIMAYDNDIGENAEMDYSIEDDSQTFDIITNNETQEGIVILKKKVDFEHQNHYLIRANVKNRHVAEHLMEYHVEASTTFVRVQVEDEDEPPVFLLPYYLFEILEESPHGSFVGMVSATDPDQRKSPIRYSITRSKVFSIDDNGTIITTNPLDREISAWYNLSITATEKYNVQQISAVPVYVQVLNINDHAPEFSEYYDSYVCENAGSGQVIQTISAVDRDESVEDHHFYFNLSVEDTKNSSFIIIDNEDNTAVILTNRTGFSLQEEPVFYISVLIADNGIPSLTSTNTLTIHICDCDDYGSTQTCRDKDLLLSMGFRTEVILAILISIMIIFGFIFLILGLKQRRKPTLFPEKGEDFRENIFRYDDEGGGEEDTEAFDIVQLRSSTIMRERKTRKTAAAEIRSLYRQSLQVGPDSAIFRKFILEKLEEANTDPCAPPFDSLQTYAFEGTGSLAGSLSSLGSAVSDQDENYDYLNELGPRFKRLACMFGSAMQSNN
Description: as §1

[5] = target: T5, muCDH19(44-770)::huCDH19(271) with leader and FLAG (construct Z) (human/mouse chimera)
T5 construct: leader (1-43 of the entry) left out
T5 chain: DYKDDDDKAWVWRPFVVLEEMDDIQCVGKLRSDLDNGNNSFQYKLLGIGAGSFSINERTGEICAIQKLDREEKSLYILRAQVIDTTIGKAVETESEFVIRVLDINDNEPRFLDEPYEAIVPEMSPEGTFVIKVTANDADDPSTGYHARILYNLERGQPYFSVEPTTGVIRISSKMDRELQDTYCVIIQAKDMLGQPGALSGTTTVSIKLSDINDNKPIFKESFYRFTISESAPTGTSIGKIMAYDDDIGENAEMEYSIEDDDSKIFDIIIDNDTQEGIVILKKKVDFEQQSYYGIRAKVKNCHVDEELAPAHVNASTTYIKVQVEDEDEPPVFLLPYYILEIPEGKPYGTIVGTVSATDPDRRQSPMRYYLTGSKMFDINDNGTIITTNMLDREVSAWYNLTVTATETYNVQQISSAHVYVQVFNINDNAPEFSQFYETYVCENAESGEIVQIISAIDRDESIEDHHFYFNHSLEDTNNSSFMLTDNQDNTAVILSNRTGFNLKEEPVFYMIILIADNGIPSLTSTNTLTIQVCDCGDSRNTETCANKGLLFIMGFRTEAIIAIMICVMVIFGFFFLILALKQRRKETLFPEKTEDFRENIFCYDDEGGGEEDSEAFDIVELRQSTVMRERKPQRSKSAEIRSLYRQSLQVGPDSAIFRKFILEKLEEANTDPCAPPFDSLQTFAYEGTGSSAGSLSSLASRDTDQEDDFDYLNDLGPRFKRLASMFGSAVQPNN
Description: as §1

Binder | binding result [1] | binding result [2] | binding result [3] | binding result [4] | binding result [5]
B1 | binds | no binding (tested: 5 ug/ml) | binds | binds | –
B2 | – | – | – | – | no binding (tested: 5 ug/ml)
B3 | – | – | – | – | binds
B4 | binds | no binding (tested: 5 ug/ml) | no binding (tested: 5 ug/ml) | no binding (tested: 5 ug/ml) | –
